Article PMC3326531

Experiments:
[1] = biological target: SENP1 (415–644) (human) (UniProt Q9P0U3)
[2] = biological target: SENP1 C603A (415–644) (human) (UniProt Q9P0U3); assay: ITC
Chain of SENP1 C603A (415–644) (human) (Q9P0U3 415-644 C603A): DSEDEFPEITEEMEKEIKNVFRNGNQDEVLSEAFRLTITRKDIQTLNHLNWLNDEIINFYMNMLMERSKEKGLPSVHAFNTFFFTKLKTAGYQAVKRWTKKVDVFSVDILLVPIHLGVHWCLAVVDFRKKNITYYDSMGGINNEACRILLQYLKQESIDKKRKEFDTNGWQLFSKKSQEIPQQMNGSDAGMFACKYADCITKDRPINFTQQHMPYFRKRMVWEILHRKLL

Chain of SENP1 (415–644) (human) (Q9P0U3 415-644): as the sequence (Q9P0U3 415-644 C603A) above, with A189C counted along it

apparent Km, Km(app), of cleavage by SENP1 (FRET-based protease assay) [1]	IC50 of product inhibition of SENP1 cleavage of YFP–RanGAP1–SUMO-2–ECFP (500 nM) [1]	IC50 of product inhibition of SENP1 cleavage of YFP–SUMO-2-FL–ECFP (500 nM) [1]	Kd [2]	dH [2]	Substance
0.242 µM	–	–	–	–	YFP–RanGAP1–SUMO-2–ECFP (from UniProt P46060 418-587; P55854 1-93) (complex)
–	1600 nM	2230 nM	8.56 nM	-14.5 kcal/mol	mature SUMO-2 (SUMO-2-GG) (from UniProt P55854 1-93) (natural protein)
